B1: Serine/threonine-protein kinase YPK1 (Saccharomyces cerevisiae), P12688 (parent)
chain: MYSWKSKFKFGKSKEEKEAKHSGFFHSSKKEEQQNNQATAGEHDASITRSSLDRKGTINPSNSSVVPVRVSYDASSSTSTVRDSNGGNSENTNSSQNLDETANIGSTGTPNDATSSSGMMTIKVYNGDDFILPFPITSSEQILNKLLASGVPPPHKEISKEVDALIAQLSRVQIKNQGPADEDLISSESAAKFIPSTIMLPGSSTLNPLLYFTIEFDNTVATIEAEYGTIAKPGFNKISTFDVTRKLPYLKIDVFARIPSILLPSKTWQQEMGLQDEKLQTIFDKINSNQDIHLDSFHLPINLSFDSAASIRLYNHHWITLDNGLGKINISIDYKPSRNKPLSIDDFDLLKVIGKGSFGKVMQVRKKDTQKVYALKAIRKSYIVSKSEVTHTLAERTVLARVDCPFIVPLKFSFQSPEKLYFVLAFINGGELFYHLQKEGRFDLSRARFYTAELLCALDNLHKLDVVYRDLKPENILLDYQGHIALCDFGLCKLNMKDDDKTDTFCGTPEYLAPELLLGLGYTKAVDWWTLGVLLYEMLTGLPPYYDEDVPKMYKKILQEPLVFPDGFDRDAKDLLIGLLSRDPTRRLGYNGADEIRNHPFFSQLSWKRLLMKGYIPPYKPAVSNSMDTSNFDEEFTREKPIDSVVDEYLSESVQKQFGGWTYVGNEQLGSSMVQGRSIR
B2: Phospholipid-transporting ATPase DNF1 (Saccharomyces cerevisiae), P32660 (parent)
chain: MSGTFHGDGHAPMSPFEDTFQFEDNSSNEDTHIAPTHFDDGATSNKYSRPQVSFNDETPKNKREDAEEFTFNDDTEYDNHSFQPTPKLNNGSGTFDDVELDNDSGEPHTNYDGMKRFRMGTKRNKKGNPIMGRSKTLKWARKNIPNPFEDFTKDDIDPGAINRAQELRTVYYNMPLPKDMIDEEGNPIMQYPRNKIRTTKYTPLTFLPKNILFQFHNFANVYFLVLIILGAFQIFGVTNPGLSAVPLVVIVIITAIKDAIEDSRRTVLDLEVNNTKTHILEGVENENVSTDNISLWRRFKKANSRLLFKFIQYCKEHLTEEGKKKRMQRKRHELRVQKTVGTSGPRSSLDSIDSYRVSADYGRPSLDYDNLEQGAGEANIVDRSLPPRTDCKFAKNYWKGVKVGDIVRIHNNDEIPADIILLSTSDTDGACYVETKNLDGETNLKVRQSLKCTNTIRTSKDIARTKFWIESEGPHSNLYTYQGNMKWRNLADGEIRNEPITINNVLLRGCTLRNTKWAMGVVMFTGGDTKIMLNSGITPTKKSRISRELNFSVVINFVLLFILCFVSGIANGVYYDKKGRSRFSYEFGTIAGSAATNGFVSFWVAVILYQSLVPISLYISVEIIKTAQAAFIYGDVLLYNAKLDYPCTPKSWNISDDLGQVEYIFSDKTGTLTQNVMEFKKCTINGVSYGRAYTEALAGLRKRQGIDVETEGRREKAEIAKDRDTMIDELRALSGNSQFYPEEVTFVSKEFVRDLKGASGEVQQRCCEHFMLALALCHSVLVEANPDNPKKLDLKAQSPDEAALVATARDVGFSFVGKTKKGLIIEMQGIQKEFEILNILEFNSSRKRMSCIVKIPGLNPGDEPRALLICKGADSIIYSRLSRQSGSNSEAILEKTALHLEQYATEGLRTLCIAQRELSWSEYEKWNEKYDIAAASLANREDELEVVADSIERELILLGGTAIEDRLQDGVPDCIELLAEAGIKLWVLTGDKVETAINIGFSCNLLNNEMELLVIKTTGDDVKEFGSEPSEIVDALLSKYLKEYFNLTGSEEEIFEAKKDHEFPKGNYAIVIDGDALKLALYGEDIRRKFLLLCKNCRAVLCCRVSPSQKAAVVKLVKDSLDVMTLAIGDGSNDVAMIQSADVGIGIAGEEGRQAVMCSDYAIGQFRYLARLVLVHGRWSYKRLAEMIPEFFYKNMIFALALFWYGIYNDFDGSYLYEYTYMMFYNLAFTSLPVIFLGILDQDVNDTISLVVPQLYRVGILRKEWNQRKFLWYMLDGLYQSIICFFFPYLVYHKNMIVTSNGLGLDHRYFVGVYVTTIAVISCNTYVLLHQYRWDWFSGLFIALSCLVVFAWTGIWSSAIASREFFKAAARIYGAPSFWAVFFVAVLFCLLPRFTYDSFQKFFYPTDVEIVREMWQHGHFDHYPPGYDPTDPNRPKVTKAGQHGEKIIEGIALSDNLGGSNYSRDSVVTEEIPMTFMHGEDGSPSGYQKQETWMTSPKETQDLLQSPQFQQAQTFGRGPSTNVRSSLDRTREQMIATNQLDNRYSVERARTSLDLPGVTNAASLIGTQQNN

Variants of: B1
Conditions: with fpk1_yeast FPK1, P53739
Target sequence in this assay (P53739 whole entry): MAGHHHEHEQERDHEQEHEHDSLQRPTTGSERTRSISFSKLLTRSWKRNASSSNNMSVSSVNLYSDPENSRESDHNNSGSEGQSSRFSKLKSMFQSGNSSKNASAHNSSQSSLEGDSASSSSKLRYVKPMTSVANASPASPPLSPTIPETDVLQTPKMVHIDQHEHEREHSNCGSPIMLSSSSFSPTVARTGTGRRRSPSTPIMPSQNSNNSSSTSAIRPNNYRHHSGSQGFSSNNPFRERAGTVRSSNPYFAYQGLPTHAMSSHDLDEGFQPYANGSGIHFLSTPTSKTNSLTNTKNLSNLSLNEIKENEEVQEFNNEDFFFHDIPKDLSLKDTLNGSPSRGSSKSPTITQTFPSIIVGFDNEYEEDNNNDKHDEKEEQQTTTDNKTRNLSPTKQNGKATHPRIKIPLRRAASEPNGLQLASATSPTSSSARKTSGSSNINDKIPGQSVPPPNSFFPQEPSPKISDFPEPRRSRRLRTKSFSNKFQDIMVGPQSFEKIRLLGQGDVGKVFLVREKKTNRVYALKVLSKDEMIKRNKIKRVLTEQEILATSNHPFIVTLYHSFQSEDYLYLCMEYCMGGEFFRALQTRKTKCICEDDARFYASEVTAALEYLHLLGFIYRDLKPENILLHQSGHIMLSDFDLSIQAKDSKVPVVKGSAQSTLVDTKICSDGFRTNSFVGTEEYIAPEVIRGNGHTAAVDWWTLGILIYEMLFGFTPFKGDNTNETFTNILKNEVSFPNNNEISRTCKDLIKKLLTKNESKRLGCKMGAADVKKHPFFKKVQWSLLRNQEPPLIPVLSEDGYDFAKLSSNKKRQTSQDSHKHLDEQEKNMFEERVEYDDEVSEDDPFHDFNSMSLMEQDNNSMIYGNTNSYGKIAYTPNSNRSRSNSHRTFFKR

Variant	effect of a mutation on the interaction
S51A;S71A	disrupting interaction

Variants of: B2
Conditions: with fpk1_yeast FPK1, P53739
Target sequence in this assay (P53739 whole entry): as above

Variant	effect of a mutation on the interaction
S1526A;S1552A	decreasing interaction

— IntAct's records for PubMed 19966303
